Measured values from article PMC3605045, “GH1-family 6-P-β-glucosidases from human microbiome lactic acid bacteria” (Acta Crystallographica Section D: Biological Crystallography, 2013).

Substrate: O=P(O)(O)OC[C@H]1O[C@@H](Oc2ccccc2CO)[C@H](O)[C@@H](O)[C@@H]1O
Assay: purified protein
Type: biochemical, Streptococcus mutans
Settings: 0.1 M HEPES-NaOH pH 8.0, 2 mM NADP+, 298 K, SeMet-labelled enzyme 0.02 µM, substrate 10-2000 µM, 25.0 °C

B1: SmBgl (Streptococcus mutans UA159) (protein)
chain: MSKLPENFLWGGAVAAHQLEGGWQEGGKGISVADVMTAGRHGVAREITAGVLEGKYYPNHEAIDFYHHYKEDVKLFAEMGFKCFRTSIAWTRIFPKGDEAEPNEAGLQFYDDLFDECLKYGIEPVVTLSHFELPYHLVTEYGGFTNRKVIDFFVHFAEVCFRRYKDKVKYWMTFNEINNQANYQEDFAPFTNSGIVYKEGDDREAIMYQAAHYELVASARAVKIGHAINPNLNIGCMVAMCPIYPATCNPKDILMAQKAMQKRYYFADVHVHGFYPEHIFKYWERKAIKVDFTERDKKDLFEGTVDYIGFSYYMSFVIDAHRENNPYYDYLETEDLVKNPYVKASDWDWQIDPQGLRYALNWFTDMYHLPLFIVENGFGAIDQVEADGMVHDDYRIDYLGAHIKEMIKAVDEDGVELMGYTPWGCIDLVSAGTGEMRKRYGFIYVDKDDEGKGTLKRSPKLSFNWYKEVIASNGDDI
notes: full length, 477 residues, ~55 kDa, homodimer; His6 cut by TEV, SNA- left at N-terminus; E. coli BL21 (DE3) Magic, pMCSG7; SeMet-labelled protein in kinetic assays
B1 gave a Km of 1020 ± 70 µM.
